Reference: publication PMC1188057, “Dynamic assembly, localization and proteolysis of the Bacillus subtilis SMC complex” (BMC Cell Biology, 2005)

B1: ScpB (Bacillus subtilis), His-tagged, purified (natural protein, UniProt P35155 1-197, looked up)
chain: MGLDIVNWKAIVEALLYAAGDEGLTKKQLLTVLEIEEPELNTIMADVADEYRGDTRGIELIEYADTYMLSTKKDFAPYLKKLIEVPSKGLSQASLEVLAIVSYKQPITRAEIEEIRGVKSERILHSLVAKALLCEVGRADGPGRAILYGTTPTFLEQFGLKTLDELPPLPENAEEDVLQEEADLFFENFNQTFEDIK
notes: ScpB, Bacillus subtilis; elutes at 65 kDa in gel filtration (dimer)
B2: SMC protein (Bacillus subtilis), His-tagged, purified (natural protein, UniProt P51834 1-1186, looked up)
chain: MFLKRLDVIGFKSFAERISVDFVKGVTAVVGPNGSGKSNITDAIRWVLGEQSARSLRGGKMEDIIFAGSDSRKRLNLAEVTLTLDNDDHFLPIDFHEVSVTRRVYRSGESEFLINNQPCRLKDIIDLFMDSGLGKEAFSIISQGKVEEILSSKAEDRRSIFEEAAGVLKYKTRKKKAENKLFETQDNLNRVEDILHELEGQVEPLKIQASIAKDYLEKKKELEHVEIALTAYDIEELHGKWSTLKEKVQMAKEEELAESSAISAKEAKIEDTRDKIQALDESVDELQQVLLVTSEELEKLEGRKEVLKERKKNAVQNQEQLEEAIVQFQQKETVLKEELSKQEAVFETLQAEVKQLRAQVKEKQQALSLHNENVEEKIEQLKSDYFELLNSQASIRNELQLLDDQMSQSAVTLQRLADNNEKHLQERHDISARKAACETEFARIEQEIHSQVGAYRDMQTKYEQKKRQYEKNESALYQAYQYVQQARSKKDMLETMQGDFSGFYQGVKEVLKAKERLGGIRGAVLELISTEQKYETAIEIALGASAQHVVTDDEQSARKAIQYLKQNSFGRATFLPLSVIRDRQLQSRDAETAARHSSFLGVASELVTFDPAYRSVIQNLLGTVLITEDLKGANELAKLLGHRYRIVTLEGDVVNPGGSMTGGAVKKKNNSLLGRSRELEDVTKRLAEMEEKTALLEQEVKTLKHSIQDMEKKLADLRETGEGLRLKQQDVKGQLYELQVAEKNINTHLELYDQEKSALSESDEERKVRKRKLEEELSAVSEKMKQLEEDIDRLTKQKQTQSSTKESLSNELTELKIAAAKKEQACKGEEDNLARLKKELTETELALKEAKEDLSFLTSEMSSSTSGEEKLEEAAKHKLNDKTKTIELIALRRDQRIKLQHGLDTYERELKEMKRLYKQKTTLLKDEEVKLGRMEVELDNLLQYLREEYSLSFEGAKEKYQLETDPEEARKRVKLIKLAIEELGTVNLGSIDEFERVNERYKFLSEQKEDLTEAKNTLFQVIEEMDEEMTKRFNDTFVQIRSHFDQVFRSLFGGGRAELRLTDPNDLLHSGVEIIAQPPGKKLQNLNLLSGGERALTAIALLFSILKVRPVPFCVLDEVEAALDEANVFRFAQYLKKYSSDTQFIVITHRKGTMEEADVLYGVTMQESGVSKVISVKLEETKEFVQ
notes: SMC, Bacillus subtilis; monomeric size 135 kDa as printed; also called wild-type SMC; wild type SMC

Key:
[1] = molecular target: the molecule itself; assay: SEC; analytical gel filtration, Superdex 200 10/300 GL; 50 mM HEPES, 300 mM NaCl, pH 8.0; proteins incubated 30 min; ScpA and ScpB alone or mixed (1:2.5, 1:0.83, 1:10), fractions on SDS-PAGE
[2] = molecular target: the molecule itself; assay: SEC + other: sucrose gradient centrifugation; native weight of purified SMC from sedimentation coefficient 6.6 and Stokes radius 8.5; monomers to dimer

Protein | stoichiometry N [1] | stoichiometry N [2]
B1 | 2 | 
B2 |  | 2
